Biological target: Ec78 PtuA ATPase (E. coli ECONIH5)
Assay: cryo-EM structure

stoichiometry N: 4
Substance: Ec78 PtuA ATPase (enzyme)

Source: article PMC12804668
